The text below walks through data of the supplement of paper PMC10567573.

This data set in a line: protein stability index of a GFP-peptide fusion (GPS, HEK-293T) (PSI 1-6); higher = more stable. As to conditions: c terminus: a fixed tail appended.

± gives the standard deviation.
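Also: 24-mer peptide tiles fused after GFP, lentivirally expressed, FACS-sorted into six equal bins by GFP/DsRed ratio, decoded by Illumina sequencing, PSI is the read-weighted mean bin number.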

As to VCSILLGTSTLLVWVGVIRYLTFF [MCOLN1], the protein stability index (treatment: DMSO) was found to be 3.3 ± 0.42 and the protein stability index (treatment: MLN4924 1 uM, 8 h) turned out to be 3.02 ± 0.079.
For KIGNSAFARYPNGVVVHYFCSKEV [VPS39], the protein stability index runs as follows: (treatment: DMSO) 2.41 ± 0.48; (treatment: MLN4924 1 uM, 8 h) 2.33 ± 0.32.
GDKASPDQNASTHTPQSSVKTSVP [CLINT1]: the protein stability index was 5.54 ± 0.19 (treatment: DMSO) and 5.38 ± 0.28 (treatment: MLN4924 1 uM, 8 h).
For NIQANNCFSTGLSRRVLLTNVVTG [DCAF4] the same measures were 2.54 ± 0.26 and 2.63 ± 0.2.
On to GALTGKENNMLQPETHIFTAPEEV [DMRTC1], for which the protein stability index came to 5.19 ± 0.17 (treatment: DMSO) and 5.01 ± 0.16 (treatment: MLN4924 1 uM, 8 h).
Sequence KKHNVTAVVRLNKKIYEAKRFTDA [CDC14A] came in with a protein stability index (treatment: DMSO) of 2.73 ± 0.2 and a protein stability index (treatment: MLN4924 1 uM, 8 h) of 2.49 ± 0.24.
In the case of LINYQDDAELATRAIPELTKLLND [CTNNB1], the protein stability index reads like this: (treatment: DMSO) 3.61 ± 0.37; (treatment: MLN4924 1 uM, 8 h) 3.59 ± 0.31.
Regarding PIDGTTNFVHRFPFVAVSIGFAVN [IMPA1], the protein stability index stood at 2.96 ± 0.76 (treatment: DMSO) and 2.39 ± 0.55 (treatment: MLN4924 1 uM, 8 h).
Regarding TKPKTTAIQGISEKEKAEIEAKEA [DLC1], the protein stability index (treatment: DMSO) is 5.56 ± 0.25 and the protein stability index (treatment: MLN4924 1 uM, 8 h) stood at 5.35 ± 0.35.
HMVKISGGPRISYPLLHEWALREG [MAGEA6] had a protein stability index (treatment: DMSO) of 2.47 ± 0.23 and a protein stability index (treatment: MLN4924 1 uM, 8 h) of 2.46 ± 0.22.
For TCLMISCYKGHKEIAQYLLEKGAD [FEM1C] the same measures were 2.29 ± 0.39 and 2.05 ± 0.27.
MNNAQRIEKWVILEKDFSIYGGEL [ACSBG2]: the protein stability index is 2.2 ± 0.12 (treatment: DMSO) and 2.28 ± 0.57 (treatment: MLN4924 1 uM, 8 h).
The matching figures for RSCAIVEDDGLQSAFTAAHELGHV [ADAMTS4]: 3.62 ± 0.43 and 3.55 ± 0.2.
SEDQKRLKQAKELDRERAAANEQL [CHCHD3] showed a protein stability index (treatment: DMSO) of 5.48 ± 0.17 and a protein stability index (treatment: MLN4924 1 uM, 8 h) of 5.57 ± 0.21.
Take HGRHIDCPATWGPSVEQAADSLDF [FOXJ1]: the protein stability index was found to be 4.31 ± 0.22 (treatment: DMSO) and 4.58 ± 0.11 (treatment: MLN4924 1 uM, 8 h).
Turning to LKDTYASLGKTNVKDDELDAMLKE [MYL5], the protein stability index by setting is: (treatment: DMSO) 5.28 ± 0.21; (treatment: MLN4924 1 uM, 8 h) 5.35 ± 0.2.
Regarding NGKTIEMDTQFTIRARELQNIYKC [IQUB], the protein stability index was found to be 2.57 ± 1.1 (treatment: DMSO) and 2.8 ± 0.19 (treatment: MLN4924 1 uM, 8 h).
For YSAYIRRCACAASSDESPGSKCSP [TTC32], the protein stability index came out at 2.25 ± 0.23 (treatment: DMSO) and 2.85 ± 0.16 (treatment: MLN4924 1 uM, 8 h).
As for EQFPELMNMLWSRMLKDNKKNWRR [CLINT1], the protein stability index is 2.14 ± 0.037 (treatment: DMSO) and 2.39 ± 0.26 (treatment: MLN4924 1 uM, 8 h).
The matching figures for NDRDFLTRIFTEDRFAQDSEMKKC [PPEF2]: 4.61 ± 0.16 and 4.79 ± 0.21.
For the sequence FSHITSARKARKYEIPHFRLKKVE [PHTF1], the protein stability index reads like this: (treatment: DMSO) 2.53 ± 0.47; (treatment: MLN4924 1 uM, 8 h) 2.82 ± 0.4.
Regarding NSYPRADTGLFSRSKSGSEEVLCD [TRIM29], the protein stability index worked out at 4.62 ± 0.33 (treatment: DMSO) and 4.68 ± 0.32 (treatment: MLN4924 1 uM, 8 h).
The matching figures for GARYEVTVVSVRGFEESEPLTGFL [TNXB]: 2.53 ± 0.79 and 2.38 ± 0.59.
As for ERLCMGVDCTEIFGGNPRFLSLHR [ZNF263], the protein stability index is, setting by setting: (treatment: DMSO) 2.54 ± 0.24; (treatment: MLN4924 1 uM, 8 h) 2.83 ± 0.13.
Consider VISLEKLNVGNERYVFEAVIRWIA [GAN], for which the protein stability index runs as follows: (treatment: DMSO) 2.38 ± 0.38; (treatment: MLN4924 1 uM, 8 h) 2.09 ± 0.29.
The sequence RTDPNGDYIRRYLPVLRGFPAKYI [CRY1] registered a protein stability index (treatment: DMSO) of 2.27 ± 0.3 and a protein stability index (treatment: MLN4924 1 uM, 8 h) of 2.42 ± 0.39.
For RKFSRLSCLRRRRHPPKVGDDSDL [SMG5] the same measures were 4.08 ± 0.17 and 3.96 ± 0.28.
As for MENQVLTPHVYWAQRHRELYLRVE [HACD3], the protein stability index worked out at 2.4 ± 0.31 (treatment: DMSO) and 2.35 ± 0.27 (treatment: MLN4924 1 uM, 8 h).
As to SLGERMNTFVRYLLKRIKKCCGMR [KCNK9], the protein stability index by setting is: (treatment: DMSO) 3.38 ± 0.14; (treatment: MLN4924 1 uM, 8 h) 2.83 ± 0.32.
Take CATGLLGSAPFLFLSLACARGSIV [SPNS1]: the protein stability index reads like this: (treatment: DMSO) 3.02 ± 0.21; (treatment: MLN4924 1 uM, 8 h) 2.88 ± 0.28.
Turning to DPPLSQDERTHRSDRPFKCNQCGK [ZNF8], the protein stability index is, setting by setting: (treatment: DMSO) 5.01 ± 0.24; (treatment: MLN4924 1 uM, 8 h) 5.11 ± 0.14.
In the case of QRDSKCKVKWTHEEDEQLRALVRQ [MYBL2], the protein stability index runs as follows: (treatment: DMSO) 4.25 ± 0.33; (treatment: MLN4924 1 uM, 8 h) 4.02 ± 0.24.
On to VVTLWYRAPEVLLQSTYATPVDMW [CDK4], for which the protein stability index is, setting by setting: (treatment: DMSO) 3.15 ± 0.61; (treatment: MLN4924 1 uM, 8 h) 3.07 ± 0.68.
For NGRKIMGKEVKVNWATTPSSQKKD [TIA1] the same measures were 4.43 ± 0.077 and 4.55 ± 0.22.
For LKIPQVRGMDLSWESRTGDQYSYS [LCOR] the same measures were 2.87 ± 0.25 and 2.86 ± 0.31.
DKALMIAMEYAPGGTLAEFIQKRC [NEK8]: the protein stability index is, setting by setting: (treatment: DMSO) 2.39 ± 0.26; (treatment: MLN4924 1 uM, 8 h) 2.54 ± 0.17.
With GTRGRLESAQATFQAHRDKYEKLR [ARFIP2], the protein stability index is 4.27 ± 0.31 (treatment: DMSO) and 4.44 ± 0.28 (treatment: MLN4924 1 uM, 8 h).
In the case of KLHDFFSYLMDHFIPSSHNDRDFL [PPEF2], the protein stability index was determined as 2.46 ± 0.51 (treatment: DMSO) and 2.53 ± 0.64 (treatment: MLN4924 1 uM, 8 h).
For QLLARRMQVDKKRVYLATDDPSLL [FUT8], the protein stability index is, setting by setting: (treatment: DMSO) 2.61 ± 0.23; (treatment: MLN4924 1 uM, 8 h) 2.92 ± 0.27.
